{
  "source": "paper PMC4039619",
  "about": "(Matrix biology : journal of the International Society for …, 2014)",
  "biological_target": "human recombinant IR-A extracellular domain (Met 1-Lys 944) with C-terminal polyhistidine tag (human, UniProt P06213-2 28-944)",
  "test": "ELISA",
  "data": [
    {"binder": "human recombinant decorin protein core (natural protein, UniProt P07585 31-359, looked up) DEASGIGPEVPDDRDFEPSLGPVCPFRCQCHLRVVQCSDLGLDKVPKDLPPDTTLLDLQNNKITEIKDGDFKNLKNLHALILVNNKISKVSPGAFTPLVKLERLYLSKNQLKELPEKMPKTLQELRAHENEITKVRKVTFNGLNQMIVIELGTNPLKSSGIENGAFQGMKKLSYIRIADTNITSIPQGLPPSLTELHLDGNKISRVDAASLKGLNNLAKLGLSFNSISAVDNGSLANTPHLRELHLDNNKLTRVPGGLAEHKYIQVVYLHNNNISVVGSSDFCPPGHNTKKASYSGVSLFSNPVQYWEIQPSTFRCVYVRSAIQLGNYK", "values": [
      {"measurement": "Kd", "result": 7.8, "unit": "nM"}
    ]}
  ]
}
